From article PMC10003451, “Phosphorylated Peptide Derived from the Myosin Phosphatase Target Subunit Is a Novel Inhibitor of Protein Phosphatase-1” (International Journal of Molecular Sciences, 2023)

Key:
[1] = test system: native catalytic subunit of PP1 (PP1c); experiment: Phosphatase assay of native PP1c with ^32P-MLC20 substrate; assay type: biochemical, rabbit skeletal muscle; conditions: PP1c 1.5–2.2 nM, 1 µM ^32P-MLC20, pH 7.4, 30 °C; n = 4
Procedure: Figure 2 Effects of a phosphorylated peptide from MYPT1 on the activity of PP1c, PP2Ac and myosin phosphatase holoenzyme (Flag-MYPT1-PP1c). (A): The native catalytic subunit of PP1 (PP1c; ▼,●) or PP2A (PP2Ac; ∆) purified from rabbit skeletal muscle or Flag-MYPT1-PP1c overexpressed and isolated from tsa201 cells (○) was assayed in the presence of dephosphorylated (▼) or phosphorylated (○,●,∆) MYPT1 peptide of R^690QSRRS(pT696)QGVTL^701 (P-Thr696-MYPT1^690−701) with ^32P-MLC20 substrate as described in Section 4. Values are mean ± SD (n = 4). Phosphatase activity in the absence of peptide was taken 100%. (B): Interaction of recombinant PP1cα with the phosphorylated peptide assessed by microscale thermophoresis (MST) or (C): with isotherm titration calorimetry (ITC) as described in Section 4. […] Only the axis text 'MYPT1^690-701 peptides' names the substance, and no target is printed. / Panel C: the picture prints no substance label for the ITC parameters.
The ^32Pi released from ^32P-MLC20 substrate were determined as previously described. The assay (80 µL) to determine the half-life of dephoshorylation for ^32P-MLC20 (10 µM) in the presence of various concentration of P-Thr696-MYPT1^690−701 (10–500 µM) was carried out in a similar fashion except that 5 µL aliquots were removed from the reaction mixture at different intervals for radioactivity measurements.

[2] = molecular target: T1, recombinant PP1cα (rPP1cα) (Homo sapiens, UniProt P62136); experiment: Microscale thermophoresis (MST); assay type: binding; conditions: rPP1cα 2 µM, peptide 9.16 nM-300 µM, 25 mM Tris/HCl, 100 mM NaCl, 1 mM DTT, 0.1% PEG 8000, pH 8.0; intrinsic fluorescence, Monolith NT.LabelFree
T1 construct: made in house; host or cells: E. coli
Procedure: The interaction of P-Thr696-MYPT1^690−701 and the recombinant PP1cα (rPP1cα) was studied by Monolith^TM NT.LabelFree (MST power: 40%; LED Power: 10%) instrument (NanoTemper Technologies GmbH, Munich, Germany). A 16-point two-fold P-Thr696-MYPT1^690−701 peptide dilution series was generated (9.16 nM-300 µM) in 25 mM Tris/HCl, 100 mM NaCl, 1 mM DTT, 0.1% PEG 8000, pH 8.0 and mixed with rPP1cα (2 µM). The mixtures were loaded into NT.LabelFree standard capillaries. The capillaries on the capillary tray were scanned and intrinsic fluorescence change of rPP1cα upon ligand binding was recorded. The data were analyzed by MO.Affinity Analysis v2.3 software.

[3] = molecular target: T1, recombinant PP1cα (rPP1cα); experiment: Isothermal titration calorimetry (ITC); assay type: binding; conditions: rPP1cα 0.5–2 µM, peptide 5–20 µM, 25 mM Tris/HCl (pH 8.0), 150 mM NaCl, 1 mM TCEP, 25 °C; one set of site model
Procedure: Isothermal titration calorimetry (ITC) experiments were carried out with MicroCal ITC200 instrument. rPP1cα was dialyzed in 25 mM Tris/HCl (pH 8.0), 150 mM NaCl, 1 mM TCEP (assay buffer) for 3 h first, then 16 h with a fresh batch of solution. Prior to measurements, rPP1cα (0.5–2 µM) was transferred into the sample cell of the calorimeter while the reference cell was filled with the assay buffer. P-Thr696-MYPT1^690−701 (5–20 µM) in the assay was applied to the syringe and 2 µL aliquot (19 times) was injected into the cell at a stirring rate of 300 rpm at 25 °C. The reference power was 5 µcal/s. The titration data were analyzed with MicroCal ITC-Origin software using one set of site model to obtain binding parameters of protein–ligand interaction.

T1 sequence (P62136 whole entry): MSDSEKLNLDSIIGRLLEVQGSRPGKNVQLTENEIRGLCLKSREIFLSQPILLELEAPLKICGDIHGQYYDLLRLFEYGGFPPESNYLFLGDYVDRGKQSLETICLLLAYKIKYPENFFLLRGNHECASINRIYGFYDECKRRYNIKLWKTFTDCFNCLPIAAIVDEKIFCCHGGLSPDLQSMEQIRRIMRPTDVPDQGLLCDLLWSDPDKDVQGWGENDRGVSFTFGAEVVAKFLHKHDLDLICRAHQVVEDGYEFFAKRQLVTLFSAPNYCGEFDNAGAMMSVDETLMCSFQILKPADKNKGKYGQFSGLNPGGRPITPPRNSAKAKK

With “MYPT1^690−701: synthesized MYPT1 peptide, non-phosphorylated (RQSRRSTQGVTL; UniProt O14974 690-701, looked up, fragment)” the “effect on PP1c activity” value [1] was “without effect”, the “KD by MST” value [2] was “no MST or ITC signals suitable for quantitative evaluation were obtained” and the “KD by ITC” value [3] was “no MST or ITC signals suitable for quantitative evaluation were obtained”.
